Reference: patent publication US20090298772A1 (UNIVERSITY OF CHICAGO, published 2009)

T1: menin (endogenous, 293 cell lysate) (UniProt O00255 1-610)
T1 construct: Endogenous protein of transfected 293 cells (a human cell line); Co-immunoprecipitated with FLAG-MLL 1-330; also called endogenous menin; product of the MEN1 tumor suppressor gene
T1 sequence (looked up): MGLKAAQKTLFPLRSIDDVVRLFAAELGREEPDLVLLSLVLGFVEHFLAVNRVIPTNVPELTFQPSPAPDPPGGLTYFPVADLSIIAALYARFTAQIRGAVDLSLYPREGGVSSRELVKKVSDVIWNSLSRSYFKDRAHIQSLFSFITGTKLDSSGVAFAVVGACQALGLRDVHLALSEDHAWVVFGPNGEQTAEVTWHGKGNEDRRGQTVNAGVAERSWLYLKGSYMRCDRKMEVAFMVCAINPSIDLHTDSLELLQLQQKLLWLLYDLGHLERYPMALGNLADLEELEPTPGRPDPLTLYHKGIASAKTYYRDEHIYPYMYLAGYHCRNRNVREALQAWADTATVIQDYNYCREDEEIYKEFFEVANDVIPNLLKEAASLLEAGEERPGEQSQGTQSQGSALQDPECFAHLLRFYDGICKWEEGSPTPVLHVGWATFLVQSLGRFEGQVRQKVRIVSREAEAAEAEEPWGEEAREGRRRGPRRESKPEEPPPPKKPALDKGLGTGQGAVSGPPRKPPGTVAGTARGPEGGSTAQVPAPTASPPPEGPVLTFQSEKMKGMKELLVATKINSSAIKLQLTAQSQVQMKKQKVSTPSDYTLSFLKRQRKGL

B1: MLL peptide 1-22 (peptide)
peptide: MAHSCRWRFPARPGTTGGGGGG
notes: Synthetic peptide
B2: MLL peptide 1-14 (peptide)
peptide: MAHSCRWRFPARPG
notes: Synthetic peptide
B3: MLL peptide 2-14 (peptide)
peptide: AHSCRWRFPARPG
notes: Synthetic peptide
B4: MLL peptide 1-30 (peptide)
peptide: MAHSCRWRFPARPGTTGGGGGGGRRGLGGG
notes: Synthetic peptide
B5: MLL peptide 4-14 (peptide)
peptide: SCRWRFPARPG
notes: Synthetic peptide
B6: MLL peptide 1-13 (peptide)
peptide: MAHSCRWRFPARP
notes: Synthetic peptide
B7: MLL peptide 5-18 (peptide)
peptide: CRWRFPARPGTTGG
notes: Synthetic peptide
B8: MLL peptide 1-26 (peptide)
peptide: MAHSCRWRFPARPGTTGGGGGGGRRG
notes: Synthetic peptide
B9: MLL peptide 3-18 (peptide)
peptide: HSCRWRFPARPGTTGG
notes: Synthetic peptide
B10: MLL 5-14 peptide (peptide)
peptide: CRWRFPARPG
notes: Synthetic peptide; also called MLL peptide 5-14
B11: MLL peptide 2-18 (peptide)
peptide: AHSCRWRFPARPGTTGG
notes: Synthetic peptide
B12: MLL peptide 3-14 (peptide)
peptide: HSCRWRFPARPG
notes: Synthetic peptide
B13: MLL peptide 1-18 (peptide)
peptide: MAHSCRWRFPARPGTTGG
notes: Synthetic peptide
B14: MLL peptide 4-18 (peptide)
peptide: SCRWRFPARPGTTGG
notes: Synthetic peptide

Target: T1, menin (endogenous, 293 cell lysate)
Assay: competition with FLAG-MLL 1-330 for endogenous menin, co-IP / Western blot (FIG. 1); binding to menin shown only by blocking
Source text: Cell lysates were immunoprecipitated with anti-FLAG antibody (Sigma), separated by SDS-PAGE and blotted with an anti-menin antibody (Bethyl Laboratories Inc. or Santa-Cruz).

Row | Binder | binding result
1 | B1 | binds
2 | B2 | binds
3 | B3 | binds
4 | B4 | binds
5 | B5 | binds
6 | B6 | binds
7 | B7 | binds
8 | B8 | binds
9 | B9 | binds
10 | B10 | binds
11 | B11 | binds
12 | B12 | binds
13 | B13 | binds
14 | B14 | binds
